Data from patent US20230165970A1, “COMPOSITIONS AND METHODS FOR THE TREATMENT OF BACTERIAL INFECTIONS” (priority 2017, published 2023).

B1: Conjugate 4 (conjugate)
chain: PRGPTIKPCPPCKCPAPNLLGGPSVFIFPPKIKDVLMISLSPIVTCVVVDVSEDDPDVQISWFVNNVEVHTAQTQTHREDYNSTLRVVSALPIQHQDWMSGKEFKCKVNNKDLPAPIERTISKPKGSVRAPQVYVLPPPEEEMTKKQVTLTCMVTDFMPEDIYVEWTNNGKTELNYKNTEPVLDSDGSYFMYSKLRVEKKNWVERNSYSCSVVHEGLHNHHTTKSFSRTPGKHHHHHH
modifications: cyclised or stapled
B2: Conjugate 26: "Conjugate of m-IgG2a(His)6 Fc-3 (Int-13)"; SEQ ID NO: 6, procedure uses Int-10, DAR=2/Fc dimer (conjugate)
chain: PRGPTIKPCPPCKCPAPNLLGGPSVFIFPPKIKDVLMISLSPIVTCVVVDVSEDDPDVQISWFVNNVEVHTAQTQTHREDYNSTLRVVSALPIQHQDWMSGKEFKCKVNNKDLPAPIERTISKPKGSVRAPQVYVLPPPEEEMTKKQVTLTCMVTDFMPEDIYVEWTNNGKTELNYKNTEPVLDSDGSYFMYSKLRVEKKNWVERNSYSCSVVHEGLHNHHTTKSFSRTPGKHHHHHH
modifications: conjugated small molecule Int-13, DAR 2
B3: Conjugate 15 (conjugate)
chain: PRGPTIKPCPPCKCPAPNLLGGPSVFIFPPKIKDVLMISLSPIVTCVVVDVSEDDPDVQISWFVNNVEVHTAQTQTHREDYNSTLRVVSALPIQHQDWMSGKEFKCKVNNKDLPAPIERTISKPKGSVRAPQVYVLPPPEEEMTKKQVTLTCMVTDFMPEDIYVEWTNNGKTELNYKNTEPVLDSDGSYFMYSKLRVEKKNWVERNSYSCSVVHEGLHNHHTTKSFSRTPGKHHHHHH
modifications: cyclised or stapled

What was measured:
Experiment in all cases: MIC assay (broth microdilution, RPMI + 5% LB)
Type in all cases: cell-based
[1] = tested on: Escherichia coli BW25113 + pUC18-mcr-1; conditions: assay media RPMI A
Text: An mcr-1 expression plasmid was constructed (GenScript; Piscataway, N.J.) using the pUC18 high copy number plasmid (Yanisch-Perron, et al., 1985). A 1649-bp fragment was synthesized containing, in order from 5′ to 3′: EcoR1 restriction site (5′-GAATTC-3), a ribosomal binding site (5′-AGGAGG-3′), a 5-bp native start codon upstream sequence (5′-TTCTC-3′) from the mcr-1-bearing plasmid pHNSHP45 (Liu, Y Y, et al., 2015; GenBank Accession #KP347127), the 1626-bp mcr-1 open reading frame with stop codon (“orf00073” of GenBank Accession #KP347127), and finally an Xba1 restriction site sequence (5′-TCTAGA-3′). […] The pUC18-mcr-1 plasmid was transformed into chemically-competent E. coli BW25113 (Coli Genetic Stock Center #7636) as described previously (Chung, et al., PNAS. 1989), recovered for 1 h shaking at 37° C. in Super Optimal broth with Catabolite repression (SOC) media and then aliquots were plated on Luria-Bertani (LB) media containing 100 μg/mL of carbenicillin. Putative transformant colonies were then verified in MIC assays.
(§1) Bacterial strains were stored as glycerol stocks at −80° C. prior to culturing on cation-adjusted Mueller-Hinton agar (MHA; BD cat. no. 211438) at 37° C. Antibacterial activity was assessed against a panel consisting of Escherichia coli, Acinetobacter baumannii, Pseudomonas aeruginosa, and Klebsiella pneumoniae strains (see Table 2).
Briefly, stock solutions of all antibacterial agents were prepared fresh in appropriate solvents (i.e. PBS, pH 7.4. DMSO, DI, etc.). Stock concentrations were made at 50× the highest final assay concentration and serially diluted 2-fold, 8 or 12 times in a 96-well PCR plate (VWR cat. no. 83007-374). Bacterial cell suspensions generated from MHA plate cultures were prepared in 0.85% saline and adjusted to ˜0.1 OD600 nm. […] Later, conjugates 16 and 17, and 20-25 were evaluated in RPMI 1640 medium (+) L-glutamine, (+) sodium bicarbonate, pH 7.4 (“RPMI B”; Gibco, cat. no. 11875-085) as has been described as a more physiologically-relevant media for susceptibility testing of antibacterial compounds. […]

Escherichia coli BW25113 = conditions: assay media RPMI A; for MIC Ec BW + FBS: 50% heat-inactivated FBS
[2] = tested on: Escherichia coli ATCC BAA-2469; conditions: assay media RPMI A
Procedure: as §1
(§2) Briefly, stock solutions of all antibacterial agents were prepared fresh in appropriate solvents (i.e. PBS, pH 7.4. DMSO, DI, etc.). Stock concentrations were made at 50× the highest final assay concentration and serially diluted 2-fold, 8 or 12 times in a 96-well PCR plate (VWR cat. no. 83007-374). Bacterial cell suspensions generated from MHA plate cultures were prepared in 0.85% saline and adjusted to ˜0.1 OD600 nm. […] Dorschner R A et al., The mammalian ionic environment dictates microbial susceptibility to antimicrobial defense peptides. FASEB J. 20(1):35-42 (2017). Ninety-eight microliters of each cell suspension in MHB were added to test wells in a 96-well assay plate (Costar cat. no. 3370). A Beckman Multimek 96 liquid handling robot was used to dispense 2 μL of each 50× stock compound into the plate containing 98 μL of each strain in MHB (2% final solvent concentration). E. coli strains BW25113 and ATCC 25922 were run in the presence and absence of 50% heat-inactivated fetal bovine serum (FBS; Sigma, cat. no. F4135-100 mL). Plates were mixed by shaking then incubated at 37° C. overnight (16-20 h).

[3] = tested on: Acinetobacter baumannii AB5075; conditions: assay media RPMI A
Procedure: as §1, §2

[4] = tested on: Acinetobacter baumannii ATCC 19606; conditions: assay media RPMI A
Procedure: as §1, §2

[5] = tested on: Escherichia coli ATCC 25922; conditions: assay media RPMI A; for MIC Ec 25922 + FBS: 50% heat-inactivated FBS
[6] = tested on: Pseudomonas aeruginosa PAO1; conditions: assay media RPMI A
Procedure: as §1
(§3) Briefly, stock solutions of all antibacterial agents were prepared fresh in appropriate solvents (i.e. PBS, pH 7.4. DMSO, DI, etc.). Stock concentrations were made at 50× the highest final assay concentration and serially diluted 2-fold, 8 or 12 times in a 96-well PCR plate (VWR cat. no. 83007-374). Bacterial cell suspensions generated from MHA plate cultures were prepared in 0.85% saline and adjusted to ˜0.1 OD600 nm. Next, cell suspensions were diluted 1:200 in RPMI containing 5% Luria Broth (LB) to improve bacterial growth (BD Difco, cat. no. 244620) to a concentration of ˜5×10^5 CFU (colony-forming units)/mL. […] Later, conjugates 16 and 17, and 20-25 were evaluated in RPMI 1640 medium (+) L-glutamine, (+) sodium bicarbonate, pH 7.4 (“RPMI B”; Gibco, cat. no. 11875-085) as has been described as a more physiologically-relevant media for susceptibility testing of antibacterial compounds. Dorschner R A et al., The mammalian ionic environment dictates microbial susceptibility to antimicrobial defense peptides. FASEB J. 20(1):35-42 […]. Ninety-eight microliters of each cell suspension in MHB were added to test wells in a 96-well assay plate (Costar cat. no. 3370). A Beckman Multimek 96 liquid handling robot was used to dispense 2 μL of each 50× stock compound into the plate containing 98 μL of each strain in MHB (2% final solvent concentration). E. coli strains BW25113 and ATCC 25922 were run in the presence and absence of 50% heat-inactivated fetal bovine serum (FBS; Sigma, cat. no. F4135-100 mL). Plates were mixed by shaking then incubated at 37° C. overnight (16-20 h).

[7] = tested on: Escherichia coli BW25113 4X-12 (COL-R; PmrB-Leu10Pro); conditions: assay media RPMI A
Procedure: as §1, §3

[8] = tested on: Pseudomonas aeruginosa ATCC 27853; conditions: assay media RPMI A
Procedure: as §1, §3

[9] = tested on: Acinetobacter baumannii ATCC 17978; conditions: assay media RPMI A
Procedure: as §1, §3

| Molecule | MIC Ec BW (mcr-1) [1] [µg/mL] | MIC Ec BW (Escherichia coli BW25113) [µg/mL] | MIC Ec BW + FBS (Escherichia coli BW25113) [µg/mL] | MIC Ec 2469 [2] [µg/mL] | MIC Ab AB5075 [3] [µg/mL] | MIC Ab 19606 [4] [µg/mL] | MIC Ec 25922 [5] [µg/mL] | MIC Ec 25922 + FBS [5] [µg/mL] | MIC Pa PAO1 [6] [µg/mL] | MIC Ec BW 4X-12 (COL-R) [7] [µg/mL] | MIC Pa 27853 [8] [µg/mL] | MIC Ab 17978 [9] [µg/mL] |
| --- | --- | --- | --- | --- | --- | --- | --- | --- | --- | --- | --- | --- |
| B1 | >128 | 32 | 32 | >128 | 32 | 32 | >128 | 64 | 16 | >128 | – | – |
| B2 | >128 | 16 | 32 | 32 | 32 | 128 | >128 | 128 | 64 | >128 | 16 | 64 |
| B3 | >128 | >128 | >128 | >128 | >128 | >128 | >128 | >128 | 16 | >128 | – | – |
